This is an account of results in patent US20200002421A1, “ANTI-B7-H3 ANTIBODIES AND ANTIBODY DRUG CONJUGATES” (AbbVie Inc., priority 2016, published 2020).

Residue numbers refer to the chain shown, from its start.

First the molecules themselves.
B1: Ab11: mouse hybridoma anti-B7-H3 monoclonal antibody, mouse IgG1/k (antibody, V domains shown)
VH: EVKLVESGGGLVQPGGSLRLSCATSGFTFTNYYMSWVRQPPGKALEWLGFIRNKANDYTTEYSASVKGRFTISRDNSQSILYLQMNTLRAEDSATYYCARESPGNPFAYWGQGTLVTVSA
VL: DIVMTQSPSSLTVTAGEKVTMTCKSSQSLLNSGTQKNFLTWYQQKPGQPPKLLIYWASTRESGVPDRFTGSGSGTDFTLTISSVQAEDLAVYFCQNDYIYPLTFGAGTKLELK
B2: Ab8: mouse hybridoma anti-B7-H3 monoclonal antibody, mouse IgG1/k (antibody, V domains shown)
VH: EVKLVESGGGLVKPGGSLKLSCAASGFTFSSYGMSWVRQTPEKRLEWVATISGGGNYTYCPDSVKGRFTISRDNAKNNLYLQMSSLRSEDTALYYCTRQRGYDYHYAMDFWGQGTSVTVSS
VL: DIQMTQSPASLSVSVGETVTITCRASENIYSNLAWHQQKQGKSPQLLVYAATNLADGVPSRFSGNGSDTQYSLKINSLQSEDFGSYFCQNFWGTSWTFGGGTKLEIK
B3: Ab12: mouse hybridoma anti-B7-H3 monoclonal antibody, mouse IgG1/k (antibody, V domains shown)
VH: EVQLVESGGGLVKPGGSLKLSCAASGFTFSSYAMSWVRQTPEKRLEWVATISSGTNYTYYPDSVKGRFTISRDNAKNTLYLQMTSLRSEDTAMYYCARQGRYSWIAYWGQGTLVTVSA
VL: DIVLTQSPASLAVSLGQRATISCRASKSVSTSDYSYMHWNQQKPGQPPKLLIYLASNLESGVPARFSGSGSGTDFTLNIHPVEEEDAATYYCQHSRELLTFGAGTKLELK
B4: chAb2: chimeric anti-B7-H3 antibody huIgG1/k, parental hybridoma Ab2; VH SEQ ID NO: 1, VL SEQ ID NO: 5 (antibody, V domains shown)
VH: QVQLQQPGAELVKPGASVKLSCKASGYTFTSYWMHWVKQRPGQGLEWIGMIHPDSGTTNYNEKFRSKATLTVDKSSSTAYMQLSSLTSEDSAVYYCAVYYGSTYWYFDVWGTGTTVTVSS
VL: DVVMTQTPLSLPVSLGDQAYISCRSSQSLVHINGNTYLHWYRQKPGQSPKLLIYKVSNRFSGVPDRFSGSGSGTDFTLKISRVEAEDLGVYFCSQSTHFPFTFGSGTKLEIK
modifications: human IgG1/kappa constant regions; Synthetic chAb2 VH amino acid sequence; Synthetic chAb2 VL amino acid sequence
B5: chAb6: chimeric anti-B7-H3 antibody huIgG1/k, parental hybridoma Ab6; VH SEQ ID NO: 56, VL SEQ ID NO: 60 (antibody, V domains shown)
VH: QVQLQQSGAELMKPGASVKISCKATGYTFSRYWIEWVKQRPGHGLEWIGEILPGSGSTNYNEKFKGKATFTADTSSNTAYMQVSSLTSEDSAVHYCARRGYGYVPYALDYWGQGTSVTVSS
VL: EIQMTQTTSSLSASLGDRVTISCRASQDISNSLNWYQQKPDGTVNLLIYYTSRLYSGVPSRFSGSGSGTDYSLTISNLEQEDIATYFCQQGNTLPYTFGGGTKLEIK
modifications: human IgG1/kappa constant regions; Synthetic chAb6 VH amino acid sequence; Synthetic chAb6 VL amino acid sequence
B6: chAb16: chimeric anti-B7-H3 antibody huIgG1/k, parental hybridoma Ab16; VH SEQ ID NO: 72, VL SEQ ID NO: 76 (antibody, V domains shown)
VH: EVKLLESGGGLVQPGGSLKLSCAASGFDFSRYWMSWVRQAPGKGLEWIGEINPDSSTINYTPSLKDKFIISRDNAKNTLYLQMSKVRSEDTALYYCARPGFGNYIYAMDYWGQGTSVTVSS
VL: B5 VL with E1D, S22N, S32F, N45K, S56L, Y96P
modifications: human IgG1/kappa constant regions; Synthetic chAb16 VH amino acid sequence; Synthetic chAb16 VL amino acid sequence

The target of one data set is T1, huB7-H3 (Homo sapiens, UniProt Q5ZPR3).
T1 construct: His tag (6xHis) (C)
T1 sequence (Q5ZPR3 with tags, fused parts or gaps): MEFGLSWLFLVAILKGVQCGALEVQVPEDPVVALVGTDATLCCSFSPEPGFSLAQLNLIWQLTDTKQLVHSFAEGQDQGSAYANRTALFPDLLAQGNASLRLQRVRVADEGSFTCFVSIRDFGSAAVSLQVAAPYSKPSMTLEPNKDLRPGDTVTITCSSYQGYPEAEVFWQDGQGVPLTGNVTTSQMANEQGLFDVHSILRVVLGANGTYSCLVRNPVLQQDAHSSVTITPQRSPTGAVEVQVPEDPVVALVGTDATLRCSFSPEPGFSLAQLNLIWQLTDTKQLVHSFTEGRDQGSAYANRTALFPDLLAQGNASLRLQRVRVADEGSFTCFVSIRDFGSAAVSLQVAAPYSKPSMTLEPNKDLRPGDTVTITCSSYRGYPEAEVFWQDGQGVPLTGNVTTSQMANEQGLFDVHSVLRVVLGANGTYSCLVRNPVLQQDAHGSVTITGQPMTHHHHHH
Description: Biacore T200 SPR binding kinetics, mAb capture. The conditions noted are these: Table 3. The procedure: The binding affinity of the purified anti-B7-H3 monoclonal antibodies was determined by surface […]. […] The binding kinetics were derived from SPR measurements using a Biacore T200 instrument and a mAb capture approach (as described in the materials and methods below).
Biacore T200 SPR instruments were used to measure the binding kinetics of human B7-H3 (4Ig-B7-H3 variant) (analyte) binding to various mAbs (ligands). The assay format was Fc-based capture via immobilized anti-mouse (Fc) (Pierce 31170) or immobilized anti-human (Fc) (Pierce 31125). A standard amine coupling protocol was employed to immobilize the capture reagents via primary amines to the carboxy-methyl (CM) dextran surface of CM5 sensorchips (Biacore); capture antibodies were coupled to a level of approximately 5000 RU. For binding kinetic measurements the assay buffer was HBS-EP+(Biacore): 10 mM Hepes, pH7.4, 150 mM NaCl, 3 mM EDTA, 0.05% polysorbate 20. During the assay, all measurements were referenced against the capture surface alone. Each assay cycle consisted of the following steps: 1) Capture of ligand to approximately 50 RU; 2) Analyte injection over both reference and test surface, 240 μL at 80 μL/min, after which the dissociation was monitored for 900 seconds at 80 μL/min; 3) Regeneration of capture surface with low pH glycine. For kinetic determinations analyte injections were 3-point, 9-fold dilution series of 900 nM, 100 nM and 11.11 nM, buffer only injections were included for secondary referencing. Data were processed and fit to a 1:1 binding model using Biacore T200 Evaluation Software to determine the binding kinetic rate constants, ka (on-rate) and kd (off-rate), and the equilibrium dissociation constant (affinity, KD).
With B1, the “huB7-H3 ka(1/Ms)” value came to 20000 M⁻¹ s⁻¹.

For the molecule B2, the “huB7-H3 ka(1/Ms)” value was 58000 M⁻¹ s⁻¹.

As for B3, the “huB7-H3 ka(1/Ms)” value was 38000 M⁻¹ s⁻¹.

The next data set concerns the target T2, human B7-H3 (Homo sapiens, UniProt Q5ZPR3).
T2 construct: His tag (6xHis) (C)
T2 sequence (Q5ZPR3 with tags, fused parts or gaps): T1 sequence (Q5ZPR3 with tags, fused parts or gaps)
Nature of the data set: Epitope grouping by pair-wise Biacore SPR binding. Conditions: simultaneous binding assay, FIG. 1. The source says:
Pair-wise binding assays performed on Biacore T200 SPR instruments were used to determine the relative epitope grouping for the murine anti-B7-H3 mAbs as described in the methods below. […] Epitope groups are represented as individual ovals, some of which overlap with each other. Antibodies in different epitope groups can bind to B7-H3 simultaneously and likely bind to different epitopes while antibodies within a given epitope group cannot bind to B7-H3 simultaneously and likely bind to overlapping epitopes. The grouping information was derived from a simultaneous binding assay as described in materials and methods. Ab3, Ab4, Ab5, Abl 1, Ab12, and Ab8 groupings were ambiguous
Pair-wise binding assays performed on Biacore T200 SPR instruments were used to determine the relative epitope grouping for a series of anti-B7-H3 mAbs. The assay format was Fc-based capture via immobilized anti-mouse (Fc) (Pierce 31170) or immobilized anti-human (Fc) (Pierce 31125). A standard amine coupling protocol was employed to immobilize the capture reagents via primary amines to the carboxy-methyl (CM) dextran surface of CM5 sensorchips (Biacore); capture antibodies were coupled to a level of approximately 2000 RU. Epitope grouping measurements were done at 12° C. (low temperature allows for grouping information on fast off-rate mAbs), the assay buffer was HBS-EP+(Biacore): 10 mM Hepes, pH7.4, 150 mM NaCl, 3 mM EDTA, 0.05% polysorbate 20. Each assay cycle consisted of the following steps in a four flowcell system: 1) separate test mAbs were captured in flowcells 2, 3 & 4 (flowcell 1 was reference, no test mAb); 2) all 4 flowcells were then blocked by injection with isotype control mAb or isotype mAb cocktail at 50 μg/mL; 3) all 4 flowcells were then injected with antigen or buffer only (buffer only is for double referencing, done for each mAb pair individually); 4) all 4 flowcells were then injected with 2nd test mAb at 10 μg/mL; 5) all 4 flowcells were then regenerated with glycine, pH1.5. The assay was done for each test mAb pair in reciprocal orientations. Simultaneous binding was evaluated examining the ratio of the 2nd test mAb response to the Ag response (RUmAb2/RUAg); if this ratio was equal to or greater than 0.2 the interaction was scored as a simultaneous binder. From this pair-wise binding assay data a “venn” style diagram was constructed manually to depict relative epitope groupings.
As to B1, the epitope grouping entry was “ambiguous”.

On to B2, for which the epitope grouping entry was “ambiguous”.

With B3, the epitope grouping entry is listed as “ambiguous”.

Test system in a further data set: not listed separately
Description: Conjugation observation (precipitation after conjugation, Method A). The format is physicochemical. The conditions noted are these: conjugated to synthon CZ. How it is done: Table 6 provides cell surface binding and cytotoxicity activity of anti-B7-H3 chimera ADCs against breast cancer cell HCC38 expressing human B7-H3.
A solution of Bond-Breaker™ tris(2-carboxyethyl)phosphine (TCEP) solution (10 mM, 0.017 mL) was added to a solution of antibody (10 mg/mL, 1 mL) preheated to 37° C. The reaction mixture was kept at 37° C. for 1 hour. The solution of reduced antibody was added to a solution of synthon (3.3 mM, 0.160 mL in DMSO) and gently mixed for 30 minutes. The reaction solution was loaded onto a desalting column (PD10, washed with Dulbecco's phosphate-buffered saline [DPBS] 3× before use), followed by DPBS (3 mL). The purified ADC solution was filtered through a 0.2 micron, low protein-binding 13 mm syringe-filter and stored at 4° C.
For B4, the “precipitation following conjugation to synthon CZ (in words)” value (“precipitation following conjugation” below) is “precipitated”.

Regarding B5, the “precipitation following conjugation” value is listed as “precipitated”.

Regarding B6, the “precipitation following conjugation” value is “precipitated”.

In another data set the test system is HCC38 cell line. Description: In vitro cell viability assay (CellTiter-Glo), HCC38. Type of data set: cell-based, human. The conditions noted are these: conjugated to synthon CZ. The procedure: The tumor cell lines HCC38 (breast cancer), NCI-H1650 (NSCLC) and NCI-H847 (small cell lung cancer cell line) were obtained from American Type Culture Collection (ATCC). Cells were grown in 96-well culture plates using recommended growth media overnight at a density of 5×10^3 (HCC38) or 20×10^3 (NCI-H847) or 40×10^3 (NCI-H1650) per well. The following day, treatments were added in fresh media to triplicate wells. Cellular viability was determined 5 days later using the CellTiter-Glo Luminescent Cell Viability Assay kit (Promega), as directed in the manufacturer's protocol. Cell viability was assessed as percentage of control untreated cells.
On the technique in general: Cellular ATP, detected with luciferase, serves as a proxy for viable cell number.
In the case of B4, the “cytotoxicity in cells expressing human B7-H3 / HCC38 cell line (in words)” value is on record as “weak cytotoxicity”.

Consider B5, for which the “cytotoxicity in cells expressing human B7-H3 / HCC38 cell line (in words)” value is recorded as “weak cytotoxicity”.

Turning to B6, the “cytotoxicity in cells expressing human B7-H3 / HCC38 cell line (in words)” value is “weak cytotoxicity”.
